Test results taken from PMC4623810.

B1: SHP2/SH2 (recombinant N-terminal SHP2 fragment containing two SH2 domains, analyte of the SPR) (domain or fragment)
chain: MTSRRWFHPNITGVEAENLLLTRGVDGSFLARPSKSNPGDFTLSVRRNGAVTHIKIQNTGDYYDLYGGEKFATLAELVQYYMEHHGQLKEKNGDVIELKYPLNCADPTSERWFHGHLSGKEAEKLLTEKGKHGSFLVRESQSHPGDFVLSVRTGDDKGESNDGKSKVTHVMIRCQELKYDVGGGERFDSLTDLVEHYKKNPMVETLGTVLQLKQPLNTTR
B2: full-length SHP2 (recombinant) (enzyme)
chain: MTSRRWFHPNITGVEAENLLLTRGVDGSFLARPSKSNPGDFTLSVRRNGAVTHIKIQNTGDYYDLYGGEKFATLAELVQYYMEHHGQLKEKNGDVIELKYPLNCADPTSERWFHGHLSGKEAEKLLTEKGKHGSFLVRESQSHPGDFVLSVRTGDDKGESNDGKSKVTHVMIRCQELKYDVGGGERFDSLTDLVEHYKKNPMVETLGTVLQLKQPLNTTRINAAEIESRVRELSKLAETTDKVKQGFWEEFETLQQQECKLLYSRKEGQRQENKNKNRYKNILPFDHTRVVLHDGDPNEPVSDYINANIIMPEFETKCNNSKPKKSYIATQGCLQNTVNDFWRMVFQENSRVIVMTTKEVERGKSKCVKYWPDEYALKEYGVMRVRNVKESAAHDYTLRELKLSKVGQGNTERTVWQYHFRTWPDHGVPSDPGGVLDFLEEVHHKQESIMDAGPVVVHCSAGIGRTGTFIVIDILIDIIREKGVDCDIDVPKTIQMVRSQRSGMVQTEAQYRFIYMAVQHYIETLQRRIEEEQKSKRKGHEYTNIKYSLADQTSGDQSPLPPCTPTPPCAEMREDSARVYENVGLMQQQKSFR

Experiments:
Assay in all cases: SPR; Biacore X100; CagA immobilised on CM5 chip by amine coupling, SHP2 or SHP2/SH2 as analyte; KD from Scatchard plots; three independent measurements
[1] = target: pY-CagA(C2)-His (tyrosine-phosphorylated Western CagA with two EPIYA-C segments) (Helicobacter pylori)
[2] = target: pY-CagA(C5)-His (tyrosine-phosphorylated Western CagA with five EPIYA-C segments) (Helicobacter pylori)
[3] = target: pY-CagA(C3)-His (tyrosine-phosphorylated Western CagA with three EPIYA-C segments) (Helicobacter pylori)
[4] = target: pY-CagA(C8)-His (tyrosine-phosphorylated Western CagA with eight EPIYA-C segments) (Helicobacter pylori)
[5] = target: pY-CagA(C1)-His (tyrosine-phosphorylated Western CagA with one EPIYA-C segment) (Helicobacter pylori)

| Binder | Kd [1] [nM] | Kd [2] [nM] | Kd [3] [nM] | Kd [4] [nM] | Kd [5] [nM] |
| --- | --- | --- | --- | --- | --- |
| B1 | 208 | 77.8 | 123 | 40.1 | 24100 |
| B2 | 369 | – | – | – | – |
